Results from the DeepSol protein solubility set.

Assay: soluble on expression in E. coli; label from the status in PepcDB or PDB records

Soluble on expression in E. coli, soluble:
SLTTENQNPLVLDKNEEISQQKADDIRLQLRQEPEVKRLAQQIDVKNQMELLEYGKEPAVEISKFSDRILGMMKTTSVTDSGTMLTQLGKIMDRFDKNDFDEPKGLMAKIFKRGGSMIEKIFKKYQTLGGEIEKIHVEISKYKDEMTKTNYTLDEMYENNIKYYMELEKYVVAGQMKLEEMQSILPSYEEKAASGNQLAQMQLDTLRNGIQALEERVYDLDMARMVALQTAPQIRLLQRGNAKLIGKINSAFIITIPIFKNGIIQAVTVKRQKLVADSMSELDRRTNEMLKRNAENISSQSVEIARMAGRPSIDIETIESSWNTIVSGMQETKQIEEENKRLREDGARRIAQLQDNIKKAALQQ, METNIVEVENFVQQSEERRGSAFTQEVKRYLERYPNTQYVDVLLTDLNGCFRGKRIPVSSLKKLEKGCYFPASVFAMDILGNVVEEAGLGQEMGEPDRTCVPVLGSLTPSAADPEFIGQMLLTMVDEDGAPFDVEPRNVLNRLWQQLRQRGLFPVVAVELEFYLLDRQRDAEGYLQPPCAPGTDDRNTQSQVYSVDNLNHFADVLNDIDELAQLQLIPADGAVAEASPGQFEINLYHTDNVLEACDDALALKRLVRLMAEKHKMHATFMAKPYEEHAGSGMHIHISMQNNRGENVLSDAEGEDSPLLKKMLAGMIDLMPSSMALLAPNVNSYRRFQPGMYVPTQASWGHNNRTVALRIPCGDRHNHRVEYRVAGADANPYLVMAAIFAGILHGLDNELPLQEEVEGNGLEQEGLPFPIRQSDALGEFIENDHLRRYLGERFCHVYHACKNDELLQFERLITETEIEWMLKNA, MSLTMPVNTIMGLFAKSPIKPLQRHVVCVNECCSHLINFFEVCNKGDWEKAGEIRAQISHLEKEADVLKREIRLKLPRGLFMPVDRSDMLELLTQQDKLANLAKDIAGRVYGRQLVIPEPLQENFIAYVRRCLDAANQAQNVINELDELLETGFKGREVTLVAEMIHQLDVIEDDTDSMQIRLRQQLMAIESKMNPIDVMFLYKILEWVGGIADQAQRVGARLELMLSRSEGHHHHHH, MAHHHHHHMSPYEYLFKYIIIGDTGVGKSCLLLQFTDKRFRADHDLTIGVEFGARLINLDNKQIKLQIWDTAGQESFRSITRSYYRGAAGALLVYDITRRETFNHLNRWLDEVRQNSNPHMAIILVGNKCDLERREVSAEEGAQFARQNGLIFLETSAKTAKNVEEAFLYTARKIYDNILEDVYDLSNESYGIKYGPNSQYSRVKLDIPSMPESRSGFSCC, MSLKRIVVANDLVGVGKVALSASIPLMASCLLEQVLLPTCLLSSHTGGGQNPVKHTTSSILDVFLTDWDNKRIKFDGIFIGYFTTTRDGQKLLEWLSRKQLPLILDPIMADNGKLYQGFSQKHIEIMIKLTQKAELVLPNISEACLLTQTAYLAKNYDEEDIRQVARKLAKLGPKQVVISGISFEEGSIGFAYYQSDSDQLTFHFGKQFPYHFYGTGDIASAIITAGFYYQLPLTQILDLVVSFLEKVLQNTLTLKRDLILGVAYESHLNYLTKSFKKLLEEKNVISKISEGHHHHHH, ASMTGGQQMGRGSGPMLIEFNIPVDLKLVEQQNPKVKLGGRYTPMDGASVHKMALLVPFRDRFEELLQFVPHMTAFLKRQGVAHHIFVLNQVDRFRFNRASLINVGFQFASDVYDYIAMHDVDLLPLNDNLLYEYPSSLGPLHIAGPKLHPKYHYDNFVGGILLVRREHFKQMNGMSNQYWGWGLEDDEFFVRIRDAGLQVTRPQNIKTGTNDTFSHIHNRYHRKRDTQKCFNQKEMTRKRDHKTGLDNVKYKILKVHEMLIDQVPVTILNILLDCDVNKTPWCDCS

Soluble on expression in E. coli, not soluble:
GPGSMLPQLLTENLCSLVEAEDRYAFSILWEFDENLNVVRDWFGKTIIRSRGALYYGDAQRMIDNPADTSDIAVSLRELMRLSKHFKAQREEDGALFLASQEFKFKVDNEHVNPTDMQVYQTFEANSMIEEWMLYANAAVATKVYESYPQWTLLRRHEPPAEGAFDTLNDALYSKLRVRLDDTTSLTLNKSLDKCEDPQDPYFNKLIRILTTRCLRQAQYFSSGG, PNKFCPGCGHGIVNRIIAEVIEEHGYEKNHVLTLGVGCVCNMNFSWNGDKMQTAHGRASSTAIGVKVALPDTLVMTYQGDGDAYVIGLSETLNTAYRNHNVTVFVINNNNFAMTGGQMSWTTMPGQVTTTSVNGRDIKTTGSPLKVPEMVANFFDVAYVARGSVHSPKEIINLKKYIKNAIEAQLNGEGYSLVEILAPCPTNWGVSLEKSIKWMEEEIVPYYALGEFKQRDG, NARTVVMVQFRDIEQETSMRRDLTRTEADLTRTEARLAAFLRNMAEGILVLDDDSRITYASEAASELLKVPVASLVGERFTEFCRAGQSRESVRRALELTTADGGSQSLRYEVELTPGERRWHAGSCQHIGIE, KQEVSGQVIYLNRGKSFFAFIKEYLEKETGYKKGVKWNRIALDEVEIITSEMSQARKENIKEAFLDGAVKIIIGTATIREGIDLQRKGTVIYNCYPDWNPTDIRQLEGRIWRQGNE, MGSDKIHHHHHHMKIKNDLIYDEIHALKADLYQPDNASKGLIIDIHGGGWFRGDKAKDQDLAEALVKDGFSVIVPNYRLTPDAYYPAPLDDMDTLYHWIKTSSKLFDSDRIAVVGSSAGGNMAVEMGIKYGLPIVSLSGILDIDDWLNEHTAVIAQPDHKQDFTNSKSSEINQTGQNDAFYKWFVTNYFNGNSDQYSLATPYKHVNSQPGPMFLANSLNEFVPTSGVLEMAKILTSKNVPYVEWMLPGTQHAKGYLEIVYPTVLNFLNQYI, MIVMPKRLSDEIASRVRALIEEQNLEAGMKLPAERQLALQLGVSRNSLREALAKLVSEGVLVSRRGGGTFVRWQHETWSEQNIVQPLKMLMANDPDYSFDILEARHAIEASTAWHAAMRATAADKEKIRLCFDATLSEDPDLASQADVRFHLAIAEASHNVVLLQTMRGFFDVLQSSVKQSRQRMYLVPPVFSKLTEQHQAVMDAILDGNAEGARKAMMAHLSFVHTTIKRFDEDQARQARITRLPGDHNEMTRENKS, MRLLDIWMRSAAALMLLSGAAFADVTVSQSNDPSVSLGGQLSALLGAERSALGTLPAQRLEQVAAAVARPEAKPEAPVKAVATKGNRGAKAADDAPAPRYDEAWLASQPATAKDSDEWKCLATALYFEARGESIQGQFAVAEVIMNRVDRPGYPGSICGVVRQGGQFSFMFDGKPETIREKAAFQRAGKIAALMLAGAPRQLTQGATHFHTRAVRPGWAHRFPRTAAIGAHLFYRQPGGS, MIDEWPVPTAAAAVIGPSGVLATHGDDAKPFALASVTKLLVARAAQVAIEEGVVELDTPAGPDGSTVRHLLAHTSGVAMNSADTVAQVGQRRVYSNFGFGLLAHAIEDAAEIEFGRYLTEAVFEPLGMSTSKLLGGADAAGFGVTSTVSDLARFAGDLLRPALVSQQMHDEATSVQFPGVNGVLPGFGSQRPNDWGLGFEIRDGKTPHWTGSSNSPRTFGHFGQSGTFLWVDPVADLALLVLTDRDFGDWTYPLWPAISDGVLREIGTHLEHHHHHH, MGSDKIHHHHHHMDYMKKLLGAEDLFDRDEPLKGVRVLEVCSVVLGPAATDYLAEFGAEVIKFEARRGDQMRYVTPYAYFWRNLSPGLLEQNHNKYWVGMHLGHPKARELFYEFVKRSDVVVDNLTPGRLSKWGISYDRLREINPRIIQLHVSGFGSWGPYTGRTSYDAIAQSEGGLAYITGFEGRGPLKSGVWIADWTTALMCAVAIVAALNYRERTGEGQYIDYSQVENVIRFLDWTWTYVDMTGENRERVGNRDLAICPSDLFDCKDGWVAIVAFSEEEFKGLCQAMGRMDLYEKFADPLERLKDENARLILKEIAEWAKTKTVKDVEELADKYGFAASHVIEVDEAYYSEHLRERGAIMAYDDPLYGEFVEPCYPPRMETPSRLKWGARPLGFDNEFVLTKYLGLSMDEIEQLYEEGVIYRWNPDVKPQCPPPDWDGKKGLKFP, MGSDKIHHHHHHMRILIRADGGRDIGMGHIMRTLTLARELNKYFEVIYVCKTENEDRKTSVNGKYAKGIHKILSSGFKVKIVRENNMVEDLYEIKGDILITDSYDVNEEYFKKTSEMFHKTIYIDDMCLYDFKDVDMIINQNINADNLKYDAAGNKSLLLGCRYVMLRDEFKDLGAKIIRRKVRDVMITTGGADPFLLTLKLLYYLKQENYNFHVVVGSSFDDIYVEKLKTYEELKNINFYYNANMKELMKKCDACISAAGSTLYELCSVGVPSLSITVAENQSKAAEKFDALKIIKNLGWHNELTREKVLEEINSLSNDYNRRKNVSMTSQSIIDGMGTQRIVEKILDMV, MGSDKIHHHHHHEYKNVNEIIVEELEIPVPLGDPFILLHNGTYYAYGTHSDEGIEVYISDNLKTWKYKGLALNKKDSWADRWFWAPEVYEVNGKFYMYYSADEHICVAVADSPVGPFIQNKQEPMIVEEKCIDNSFFMDDDGTPYLSFVRFNDGNNVWIAELEKDLITLKKETMRPCIHVSQAWEEVWPRVNEGSYILKHNGIYYMTYSANSYESPFYGVGCATATDIMGEWAKYDENPLLQNPGGLVGVGHSAMFTDKEGKLRIVFHAHKDKSNIHPRAMYIGTVNFENVNGTDRMRISKEYITPKLLQ, MAGDPMRMVAHRFLRPQEAHMQVLVRDNNVDQALRILKKKLQREGVFREMRLREAFEKPSIKKAREKAEAIGRQRKLARKQMQREGLLPTKPRKDKLEHHHHHH, MKHPIRKTLVTLGLLLTLCLPTPVAASSRSWKSWFIEQYFWLKRDKSYYSKQDDPSFQRYLDACREQSDKPYQLDTNLVNGPLVQENLYGMQVYSWNDNGKPDQKTIIYLAGGSYLNNPTTYHINMLKTLSTSLDAKIVLPIYPKAPRYTYNYTMPKLVNLYQHYYHKNQNVFLMGDSAGGGLALGLAHALHNESVPQPKQLVLLSPWLDVTMSHPEIPEYEDADPILSSWGLKRVGELWAYSADNTNHIYVSPKNGPITYLPPITLFTGTREIFYPDIRDYAAKLKAANHNITFITQEGMNHVYPIYPIEEAKTAQYQIIDAINKTP, MNEIKCPNCGEVFTVNESQYAELLSQVRTAEFDKELHDRMKQELALAEQKAMNEQQTKLAQKDQEIAQLQSQIQNFDTEKELAKKEVEQTSHEALLAKDKEVQLLENQLATLRLEHENQLQKTLSDLEKERDQVKNQLLLQEKENELSLASVKQNYEAQLKAASEQVEFYKNFKAQQSTKAIGESLEQYAESEFNKVRSFAFPNAYFEKDNKVSSRGSKGDFIFRECDENGVEIISIMFEMKNEADGTEKKHKNADFYKELDKDRREKNCEYAVLVTMLEADNDYFNTGIVDVSHEYEKMYVVRPQFFIQLIGLLRNAALNSLKYKQELALVREQNIDITHFEEDLDAFKLAFAKNYNSASTNFGKAIDEIDKAIKRMEEVKKFLTTSENQLRLANNKLEDVSVKKLTRKNPTMKAKFEALKGE, MSDETDWYGPEAATFGDRLAAAREASGMTQAQLARRLGVKKATINGWEDDLSEPRANRLSMLAGLLNVSIVWLITGEGQGGEALNETDETARDMAALLTELRSLRADLQASGQRAARLEKQLRQIMEHSA, MQSFADAKEFFQYSAGQWQSRRVTHHLPFRRAESGGSNIQVETLEKDDPRIIEICQMHDMDASLSVGGSYVTWAGTMQWDKDDENHEGSTVFALIPDADNPRQGKLLRERGYAEIVPVAGEYHLDHEDGLVLTTEYETMTIYERFWFANPDLRLRTSTVKRFGGFNTTTFCMEERIQTSPVTATAAAETNPLYAISGW, GPGSMNRLFGRKKDTQKPTLEDASVKIGARCDAVDARVSKIDAELAKLKECIQRTTGATQQRHKQRAIQLLQQKRLYQNQQDVLMQQQFNIDQLQFTTESVKDAKLQVDAMKDATKTLKREFKKMSVADVEKLQDELLNLYEDAQYVQEAMGRSYDVPDSIDEDEMLGELEALAMQSGNEADSSYLSDALAMPSGRLPDLMSNTQQQQETETPDPYKLETQLGL
